Results taken from patent publication US20190085083A1 (BRIGHAM AND WOMEN S HOSPITAL, published 2019).

Molecular target: T1, hKLRG1 (human KLRG1), plate-coated, Example 21 (human, UniProt Q96E93 60-195, limits assumed)
T1 construct: also called plate-coated KLRG1
T1 sequence (looked up): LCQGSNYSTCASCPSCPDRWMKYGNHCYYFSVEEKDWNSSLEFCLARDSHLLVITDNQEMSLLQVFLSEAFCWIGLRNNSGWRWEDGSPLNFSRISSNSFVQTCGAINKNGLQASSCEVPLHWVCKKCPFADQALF
Test: ELISA, soluble hE-cadherin on plate-coated hKLRG1
Text: An ELISA based KLRG1/E-cadherin competition assay was developed to measure KLRG1/E-cadherin binding as well as neutralization of KLRG1/E-cadherin binding.
FIG. 23 presents the results of soluble hE-cadherin binding to plate-coated hKLRG1.

B1: soluble recombinant human E-cadherin (ligand)
chain: DWVIPPISCPENEKGPFPKNLVQIKSNKDKEGKVFYSITGQGADTPPVGVFIIERETGWLKVTEPLDRERIATYTLFSHAVSSNGNAVEDPMEILITVTDQNDNKPEFTQEVFKGSVMEGALPGTSVMEVTATDADDDVNTYNAAIAYTILSQDPELPDKNMFTINRNTGVISVVTTGLDRESFPTYTLVVQAADLQGEGLSTTATAVITVTDTNDNPPIFNPTTYKGQVPENEANVVITTLKVTDADAPNTPAWEAVYTILNDDGGQFVVTTNPVNNDGILKTAKGLDFEAKQQYILHVAVTNVVPFEVSLTTSTATVTVDVLDVNEAPIFVPPEKRVEVSEDFGVGQEITSYTAQEPDTFMEQKITYRIWRDTANWLEINPDTGAISTRAELDREDFEHVKNSTYTALIIATDNGSPVATGTGTLLLILSDVNDNAPIPEPRTIFFCERNPKPQVINIIDADLPPNTSPFTAELTHGASANWTIQYNDPTQESIILKPKMALEVGDYKINLKLMDNQNKDQVTTLEVSVCDCEGAAGVCRKAQPVEAGLQIPA
notes: also called hE-cadherin; soluble E-cadherin
How did the EC50 turn out when B1 was run?
Its EC50 is 25 nM.
